This note sets out measurements from publication PMC3874172 (Nucleic Acids Research, 2013).

For experiment [1], the target named is GST-ETO (UniProt Q06455). Put plainly: pull-down.
Experiment [2] has as its target T1, GST-ETO (UniProt Q06455-2 1-577).
T1 sequence (looked up): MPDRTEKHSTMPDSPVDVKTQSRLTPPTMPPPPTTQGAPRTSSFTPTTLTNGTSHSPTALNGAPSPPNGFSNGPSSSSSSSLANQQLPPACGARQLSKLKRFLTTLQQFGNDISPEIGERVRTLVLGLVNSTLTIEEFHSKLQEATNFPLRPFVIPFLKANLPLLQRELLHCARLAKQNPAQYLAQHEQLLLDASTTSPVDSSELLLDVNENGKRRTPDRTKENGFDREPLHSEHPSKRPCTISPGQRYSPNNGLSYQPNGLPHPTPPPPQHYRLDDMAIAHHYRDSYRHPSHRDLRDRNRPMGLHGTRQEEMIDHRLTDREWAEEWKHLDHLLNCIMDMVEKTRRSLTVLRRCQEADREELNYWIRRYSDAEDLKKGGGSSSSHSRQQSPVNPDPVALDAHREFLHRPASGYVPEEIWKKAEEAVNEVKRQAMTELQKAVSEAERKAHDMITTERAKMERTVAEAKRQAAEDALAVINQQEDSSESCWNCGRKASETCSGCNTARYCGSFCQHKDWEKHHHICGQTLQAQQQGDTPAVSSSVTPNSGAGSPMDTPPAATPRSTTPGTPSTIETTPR
In words: pull-down.

As to “isolated DES domain of E2A, in vitro translated Gal4-DBD fusion (domain or fragment)”, the fold reduction of binding relative to E2A-AD in experiment [1] was 4 fold.

B1: E2A-AD1 (amino acids 1-90), in vitro translated (domain or fragment, UniProt P15923 1-90, looked up)
chain: MNQPQRMAPVGTDKELSDLLDFSMMFPLPVTNGKGRPASLAGAQFGGSGLEDRPSSGSWGSGDQSSSSFDPSRTFSEGTHFTESHSSLSS
modifications: 35S label
For B1, the “fold reduction of binding relative to E2A-AD” value in experiment [2] is roughly 24 fold.
